From publication doi:10.1101/2022.03.02.482641v1

Substrate: NC(=O)c1ccc[n+]([C@@H]2O[C@H](COP(=O)([O-])OP(=O)(O)OC[C@H]3O[C@@H](n4cnc5c(N)ncnc54)[C@H](O)[C@@H]3O)[C@@H](O)[C@H]2O)c1
Test: purified protein

| Protein | Km | kcat |
| --- | --- | --- |
| zfSARM1 (zebrafish SARM1, zfSARM1 w.t.) (Danio rerio) (protein) DRLTVPEYVSSRLHNRRTAPDPRAVSPGISTDVQAVLDGSLPALRSAIRTLRSSKDTGDLEETRRAIAETFQLVEEAWVLPTVGRRVAEEICNRIRLDGGLELLLQLMQTPAVEITYESAKLLEQILVSENRDYVARMGLGVILNLTREQEDAQLARSVSGILEHMFKHTEETSAQLITNGALDTILYWCRGTDPTVLRHCAVALSNCAMYGGHRCQRLMIEKQAAEWLFPLAFSKEDELIRFHACLAVAVLAANREMEKEVVKSGTLELVEPFIASLDPDEFARNMLDSADSMQGRTAADLQHLLPLLDGTRLEGKCIAAFYLCVETSIKSRQRNTKIFQEIGAVQSLKRIVMYSSNATVCSLAKRALKMMSEEVPRRILSSVPNWKSGEVQTWLQQIGFSAFSERFQELQVDGDLLLNITEQDLIQDLGMTSGLTRKRFLRDLRVLKTYANYSTCDPNNLADWLADADPRFRQYTYGLVQSGVDRNNIVHITDQQLLTDCHVENGIHRAKILSAARRPSKPCLTDSQPKGPDVFISYRRTTGSQLASLLKVHLQLRGFSVFIDVEKLEAGRFEEKLITSVQRARNFILVLSANALDKCMGDVAMKDWVHKEIVTALNGKKNIVPVTDNFVWPDPTSLPEDMSTILKFNGIKWSHEYQEATIEKILRFLEGCPSQEKPDGAKTDKKEPQKK | 28 µM | 6.85 s⁻¹ |
| hSARM1 (hSARM1 w.t., near-intact, 26ERL...GPT724) (Homo sapiens) (protein) ERLAVPGPDGGGGTGPWWAAGGRGPREVSPGAGTEVQDALERALPELQQALSALKQAGGARAVGAGLAEVFQLVEEAWLLPAVGREVAQGLCDAIRLDGGLDLLLRLLQAPELETRVQAARLLEQILVAENRDRVARIGLGVILNLAKEREPVELARSVAGILEHMFKHSEETCQRLVAAGGLDAVLYWCRRTDPALLRHCALALGNCALHGGQAVQRRMVEKRAAEWLFPLAFSKEDELLRLHACLAVAVLATNKEVEREVERSGTLALVEPLVASLDPGRFARCLVDASDTSQGRGPDDLQRLVPLLDSNRLEAQCIGAFYLCAEAAIKSLQGKTKVFSDIGAIQSLKRLVSYSTNGTKSALAKRALRLLGEEVPRPILPSVPSWKEAEVQTWLQQIGFSKYCESFREQQVDGDLLLRLTEEELQTDLGMKSGITRKRFFRELTELKTFANYSTCDRSNLADWLGSLDPRFRQYTYGLVSCGLDRSLLHRVSEQQLLEDCGIHLGVHRARILTAAREMLHSPLPCTGGKPSGDTPDVFISYRRNSGSQLASLLKVHLQLHGFSVFIDVEKLEAGKFEDKLIQSVMGARNFVLVLSPGALDKCMQDHDCKDWVHKEIVTALSCGKNIVPIIDGFEWPEPQVLPEDMQAVLTFNGIKWSHEYQEATIEKIIRFLQGRSSRDSSAGSDTSLEGAAPMGPT | 33 µM | 3.65 s⁻¹ |
